According to paper PMC9504172:

How the values were obtained:
Assay in all cases: pull-down; GST-Rab11 proteins immobilized on glutathione-Sepharose beads; lysates of cells expressing GFP-SPIN90 in buffer B (25 mM HEPES, 100 mM NaCl, 5 mM MgCl2, 1% NP-40, 10% glycerol); 2 h at 4 °C; immunoblot with anti-GFP
[1] = target: GST-Rab11 WT (human) (UniProt P62491)
[2] = target: GST-Rab11 S25N (human) (UniProt P62491)
[3] = target: GST-Rab11 Q70L (human) (UniProt P62491)

- relative band intensity (normalized to GST-Rab11 WT with SPIN90 FL) [1]: 1.8
- relative band intensity (normalized to GST-Rab11 WT with SPIN90 FL) [2]: 2.89
- relative band intensity (normalized to GST-Rab11 WT with SPIN90 FL) [3]: 1.43
Substance: GFP-SPIN90 C-term (C) (domain or fragment)
